Test results as given in PMC2927863.
Positions count from the first letter of the chain named.

T1: GST-NHR-6 (DBD+LBD) (Caenorhabditis elegans, UniProt P41829 260-619)
T1 sequence: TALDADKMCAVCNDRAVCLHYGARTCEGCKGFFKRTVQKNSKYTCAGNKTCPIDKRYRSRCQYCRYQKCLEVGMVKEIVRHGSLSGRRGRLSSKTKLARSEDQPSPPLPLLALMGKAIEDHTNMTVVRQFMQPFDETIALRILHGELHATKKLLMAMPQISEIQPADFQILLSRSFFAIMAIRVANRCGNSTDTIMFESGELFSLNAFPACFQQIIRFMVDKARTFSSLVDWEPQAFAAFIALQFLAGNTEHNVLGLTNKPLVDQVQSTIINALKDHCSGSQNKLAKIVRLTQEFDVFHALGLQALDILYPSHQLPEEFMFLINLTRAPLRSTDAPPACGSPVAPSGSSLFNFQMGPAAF

T2: GST-NHR-6 (C288S) (Caenorhabditis elegans, UniProt P41829 260-619, C288S)
T2 sequence: T1 sequence with C29S

B1: mutant NBRE 26-mer (dsDNA)
DNA 1: GAGTTTTACCAGGTCATGCTCAATTT
DNA 2: AAATTGAGCATGACCTGGTAAAACTC
B2: NBRE 26-mer (dsDNA)
DNA 1: GAGTTTTAAAAGGTCATGCTCAATTT
DNA 2: AAATTGAGCATGACCTTTTAAAACTC

Assays:
[1] = molecular target: T1, GST-NHR-6 (DBD+LBD); test: competition
[2] = molecular target: T2, GST-NHR-6 (C288S); test: EMSA
[3] = molecular target: T1, GST-NHR-6 (DBD+LBD); test: EMSA

Binder | binding result [1] | binding result [2] | binding result [3]
B1 | no binding |  | 
B2 |  | no binding | binds
